These results are taken from patent US6869925 (Amgen, dated 2005).

Data set [1] has as its target SLPI binding sites on U937 cells (human monocyte cell line; intact cells, PMA-induced cells or plasma membranes) (human). Briefly: competition with 125I-SLPI, U937 plasma membranes, Kd by Cheng-Prusoff.
For data set [2] the target is unchanged. Briefly: competition with 125I-SLPI, intact U937 cells, competitor at 0 nM.
Data set [3] has the same target. Briefly: competition with 125I-SLPI, intact U937 cells, competitor at 8.2 nM.
In data set [4] the target is SLPI binding sites on HuT78 cells (human T cell line) (human). Briefly: competition with 125I-SLPI, intact HuT78 cells, competitor at 2750 nM.
The target is the same in data set [5]. Briefly: competition with 125I-SLPI, intact HuT78 cells, competitor at 84 nM.
The target of data set [6] is SLPI binding sites on U937 cells (human monocyte cell line; intact cells, PMA-induced cells or plasma membranes) (human). Briefly: competition with 125I-SLPI, intact U937 cells, competitor at 84 nM.
The target is the same in data set [7]. Briefly: competition with 125I-SLPI, intact U937 cells, competitor at 860 nM.
For data set [8] the target is unchanged. Briefly: competition with 125I-SLPI, intact U937 cells, competitor at 0.80 nM.
Data set [9] shares this target. Briefly: competition with 125I-SLPI, intact U937 cells, competitor at 0.25 nM.
For data set [10] the target is unchanged. Briefly: competition with 125I-SLPI, U937 plasma membranes, competitor at 2750 nM.
The target of data set [11] is SLPI binding sites on HuT78 cells (human T cell line) (human). Briefly: competition with 125I-SLPI, intact HuT78 cells, Kd by Cheng-Prusoff.
The target of data set [12] is SLPI binding sites on U937 cells (human monocyte cell line; intact cells, PMA-induced cells or plasma membranes) (human). Briefly: competition with 125I-SLPI, U937 plasma membranes, competitor at 83.9 nM.
For data set [13] the target is unchanged. Briefly: competition with 125I-SLPI, intact U937 cells, competitor at 26 nM.
The target is the same in data set [14]. Briefly: competition with 125I-SLPI, intact U937 cells, Kd by Cheng-Prusoff.
Data set [15] concerns the target SLPI binding sites on HuT78 cells (human T cell line) (human). Briefly: competition with 125I-SLPI, intact HuT78 cells, competitor at 0 nM.
The target of data set [16] is SLPI binding sites on U937 cells (human monocyte cell line; intact cells, PMA-induced cells or plasma membranes) (human). Briefly: competition with 125I-SLPI, intact U937 cells, competitor at 2750 nM.
For data set [17] the target is unchanged. Briefly: competition with 125I-SLPI, U937 plasma membranes, competitor at 0.800 nM.
For data set [18], the target named is SLPI binding sites on HuT78 cells (human T cell line) (human). Briefly: competition with 125I-SLPI, intact HuT78 cells, competitor at 2.6 nM.
Data set [19] shares this target. Briefly: competition with 125I-SLPI, intact HuT78 cells, competitor at 0.80 nM.
Data set [20] addresses SLPI binding sites on U937 cells (human monocyte cell line; intact cells, PMA-induced cells or plasma membranes) (human). Briefly: competition with 125I-SLPI, U937 plasma membranes, competitor at 0 nM.
Data set [21] has the same target. Briefly: competition with 125I-SLPI, U937 plasma membranes, competitor at 8.20 nM.
Data set [22] has the same target. Briefly: competition with 125I-SLPI, intact U937 cells, competitor at 270 nM.
For data set [23] the target is unchanged. Briefly: competition with 125I-SLPI, intact U937 cells, competitor at 0.024 nM.
The target is the same in data set [24]. Briefly: competition with 125I-SLPI, intact U937 cells, competitor at 0.078 nM.
Data set [25] concerns the target SLPI binding sites on HuT78 cells (human T cell line) (human). Briefly: competition with 125I-SLPI, intact HuT78 cells, competitor at 8.2 nM.
Data set [26] addresses SLPI binding sites on U937 cells (human monocyte cell line; intact cells, PMA-induced cells or plasma membranes) (human). Briefly: competition with 125I-SLPI, U937 plasma membranes, competitor at 268 nM.
For data set [27] the target is unchanged. Briefly: competition with 125I-SLPI, U937 plasma membranes, competitor at 2.56 nM.
Data set [28] has the same target. Briefly: competition with 125I-SLPI, intact U937 cells, competitor at 2.6 nM.
The target in data set [29] is HIV-1 envelope protein gp120.

As to HIV-1 envelope protein gp120, the Kd in [1] came out at 400 nM.
In the case of “SLPI mutein Gly 20 (from UniProt P03973 26-132)”, the % *SLPI BOUND in data set [2] turned out to be 130%; in data set [3] it was 49%; in data set [4] it was 7%; in [5], 50%; in [6] it was 11%; in [7] it was 5%. In addition, the % *SLPI BOUND is 91% in data set [8]; 110% in data set [9]; 28% in [13]; 100% in [15]; 5% in data set [16]; 91% in data set [18]. Moreover, the % *SLPI BOUND in data set [19] was found to be 109%; in [22] it was 6%; in data set [23], 110%; in data set [24], 117%; in data set [25], 103%. The Kd in data set [1] came to 5 nM; in data set [11] it was 13 nM; in data set [14], 3.5 nM. In addition, the CPM *SLPI BOUND was found to be 1500 cpm in [10]; 2490 cpm in [12]; 14900 cpm in data set [17]; 18700 cpm in data set [20]; 7400 cpm in data set [21]; 1620 cpm in data set [26]. The molecule also had a CPM *SLPI BOUND in [27] of 11400 cpm.
Consider “SLPI mutein Lys 72 (from UniProt P03973 26-132)”, for which the % *SLPI BOUND in [2] was determined as 117%; in data set [3], 39%; in [4], 34%; in data set [5], 86%; in data set [6], 10%; in data set [7] it was 5%. Besides, the % *SLPI BOUND was 86% in data set [8]; 103% in data set [9]; 21% in data set [13]; 71% in data set [28]; 100% in [15]; 4% in [16]. Further, the % *SLPI BOUND is 118% in data set [18]; 105% in data set [19]; 6% in data set [22]; 116% in data set [23]; 113% in data set [24]; 116% in data set [25]. Moreover, the Kd in data set [1] was determined as 5 nM; in data set [11] it was 200 nM; in [14] it was 2.5 nM. Besides, the CPM *SLPI BOUND in [10] was 5010 cpm; in data set [12], 3500 cpm; in data set [17], 14200 cpm; in [20], 18700 cpm; in data set [21] it was 7620 cpm; in data set [26] it was 3240 cpm. The CPM *SLPI BOUND in data set [27] is 12200 cpm.
On to “SLPI mutein Val 72 (from UniProt P03973 26-132)”, for which the % *SLPI BOUND was determined as 95% in [2]; 78% in [3]; 14% in data set [4]; 43% in data set [5]; 48% in data set [6]; 90% in [8]. In addition, the % *SLPI BOUND turned out to be 80% in [28]; 100% in data set [15]; 8% in [16]; 96% in data set [18]; 93% in data set [19]; 81% in data set [25]. Further, the values for the Kd in [1], in data set [11] and in data set [14] were 19 nM, 9 nM and 30 nM, respectively. Further, the CPM *SLPI BOUND came to 923 cpm in data set [10]; 3380 cpm in [12]; 14000 cpm in data set [17]; 18700 cpm in data set [20]; 9240 cpm in [21]; 1740 cpm in [26]. The CPM *SLPI BOUND in data set [27] was 11600 cpm.
In data set [1], “alpha-1 protease inhibitor (from UniProt P01009 25-418)” had a dissociation constant (Kd) of 1000 nM.
In the case of “bFGF (from UniProt P09038 143-288) (ligand)”, the CPM *SLPI BOUND in data set [10] stood at 14700 cpm; in data set [12], 15000 cpm; in data set [17] it was 14000 cpm; in data set [20], 18700 cpm; in data set [21], 14500 cpm; in data set [26], 14400 cpm. In addition, the CPM *SLPI BOUND in data set [27] worked out at 13500 cpm.
lysozyme (enzyme): the CPM *SLPI BOUND in data set [10] worked out at 15900 cpm; in [12], 15500 cpm; in data set [17], 15200 cpm; in data set [20], 18700 cpm; in data set [21], 15000 cpm; in [26], 14900 cpm. Also, the CPM *SLPI BOUND in [27] was 14700 cpm.

B1: cathepsin G (protein)
chain: IIGGRESRPHSRPYMAYLQIQSPAGQSRCGGFLVREDFVLTAAHCWGSNINVTLGAHNIQRRENTQQHITARRAIRHPQYNQRTIQNDIMLLQLSRRVRRNRNVNPVALPRAQEGLRPGTLCTVAGWGRVSMRRGTDTLREVQLRVQRDRQCLRIFGSYDPRRQICVGDRRERKAAFKGDSGGPLLCNNVAHGIVSYGKSSGVPPEVFTRVSSFLPWIRTTMRS
In the case of B1, in [29], the “proteolytic cleavage of gp120 (Western blot)” value is “gp120 (400 nM) was also incubated at 37° for 30 min, with 10 nM cathepsin G and yielded different bands”.

B2: human neutrophil elastase (protein)
chain: IVGGRRARPHAWPFMVSLQLRGGHFCGATLIAPNFVMSAAHCVANVNVRAVRVVLGAHNLSRREPTRQVFAVQRIFENGYDPVNLLNDIVILQLNGSATINANVQVAQLPAQGRRLGNGVQCLAMGWGLLGRNRGIASVLQELNVTVVTSLCRRSNVCTLVRGRQAGVCFGDSGSPLVCNGLIHGIASFVRGGCASGLYPDAFAPVAQFVNWIDSIIQ
Regarding B2, in data set [29], the “proteolytic cleavage of gp120 (Western blot, reducing SDS-PAGE)” value is listed as “Incubation at 37° for 30 min, with 10 nM HNE yielded primarily 2 bands on Western blot”.
